B1: persephin (PSPN) (ligand, UniProt O60542 61-156, looked up)
chain: ALSGPCQLWSLTLSVAELGLGYASEEKVIFRYCAGSCPRGARTQHGLALARLQGQGRAHGGPCCRPTRYTDVAFLDDRHRWQRLPQLSAAACGCGG

How the values were obtained:
[1] = molecular target: GDNF, NRTN, and ARTN; assay: SPR
[2] = molecular target: HS-carrying extracellular domain of syndecan-3 purified from rat brain (rat, UniProt P33671 45-387, heparan sulfate (HS) chains); assay: SPR
HS-carrying extracellular domain of syndecan-3 purified from rat brain (rat, UniProt P33671 45-387, heparan sulfate (HS) chains), sequence (P33671 45-387): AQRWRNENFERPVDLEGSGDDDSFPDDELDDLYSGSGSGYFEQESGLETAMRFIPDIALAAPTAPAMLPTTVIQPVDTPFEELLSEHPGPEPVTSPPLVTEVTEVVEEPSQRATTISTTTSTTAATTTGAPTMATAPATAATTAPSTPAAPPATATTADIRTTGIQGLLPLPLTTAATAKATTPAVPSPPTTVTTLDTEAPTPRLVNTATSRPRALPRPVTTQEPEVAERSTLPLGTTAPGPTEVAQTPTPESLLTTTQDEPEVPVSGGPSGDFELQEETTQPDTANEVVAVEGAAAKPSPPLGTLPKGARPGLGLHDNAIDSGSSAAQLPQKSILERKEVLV

Molecule | Kd [1] | Kd [2]
HS-carrying extracellular domain of syndecan-3 purified from rat brain (from UniProt P33671 45-387) (domain or fragment) | 10 to 50 nM | –
B1 | – | > 70 nM

From publication PMC3019558 (The Journal of Cell Biology, 2011)
